Legend:
[1] = biological target: MBP-tagged Vif–CBFβ–EloB–EloC complex (wild type) (HIV-1 (pNL4–3) | human | , UniProt P12504;Q13951-2;Q15370;Q15369); assay: pull-down
[2] = biological target: MBP-tagged Vif–CBFβ–EloB–EloC complex with CBFβ E54K (HIV-1 (pNL4–3) | human | , UniProt P12504;Q13951-2;Q15370;Q15369, E54K); assay: pull-down
[3] = biological target: truncated Vif–CBFβ subcomplex (Vif176Δ114–157 with CBFβ151) (HIV-1 (pNL4–3) | human, UniProt P12504;Q13951); assay: SEC

B1: A3F_(CTDm) D260R/D261R (domain or fragment)
chain: KEILRNPMEAMDPHIFYFHFKNLRKAYGRNESWLCFTMEVVKHHSPVSWKRGVFRNQVDPETGRHAERCFLSWFCRRILSPNTNYEVTWYTSWSPCPECAGEVAEFLARHSNVNLTIKTARLYYFKDTDAAEGLRSLSQEGASVEIMGYKDFKYCWENFVYNDDEPFKPWDGLDYNFLDLDSKLQEILE
B1: binds [1].

B2: A3F_(CTDm) R293D (domain or fragment)
chain: KEILRNPMEAMDPHIFYFHFKNLRKAYGRNESWLCFTMEVVKHHSPVSWKRGVFRNQVDPETGRHAERCFLSWFCDDILSPNTNYEVTWYTSWSPCPECAGEVAEFLADHSNVNLTIKTARLYYFKDTDAAEGLRSLSQEGASVEIMGYKDFKYCWENFVYNDDEPFKPWDGLDYNFLDLDSKLQEILE
B2: binds [2].

B3: A3F_(CTDm) D347R (domain or fragment)
chain: KEILRNPMEAMDPHIFYFHFKNLRKAYGRNESWLCFTMEVVKHHSPVSWKRGVFRNQVDPETGRHAERCFLSWFCDDILSPNTNYEVTWYTSWSPCPECAGEVAEFLARHSNVNLTIKTARLYYFKDTDAAEGLRSLSQEGASVEIMGYKDFKYCWENFVYNRDEPFKPWDGLDYNFLDLDSKLQEILE
B3: binds [3]; binds [1].

B4: A3F_(CTDm) P265A (domain or fragment)
chain: KEILRNPMEAMDPHIFYFHFKNLRKAYGRNESWLCFTMEVVKHHSPVSWKRGVFRNQVDPETGRHAERCFLSWFCDDILSANTNYEVTWYTSWSPCPECAGEVAEFLARHSNVNLTIKTARLYYFKDTDAAEGLRSLSQEGASVEIMGYKDFKYCWENFVYNDDEPFKPWDGLDYNFLDLDSKLQEILE
B4: binds [1].

From publication PMC6899190 (Nature structural & molecular biology, 2019)
